{"source": "paper PMC5026484", "about": "(eLife, 2016)", "binders": {"B1": {"name": "bMERB domain (Rab binding domain) of Mical-1, residues 918-1067 (domain or fragment, human, UniProt Q8TDZ2 918-1067, looked up)", "chain": "KEEEMKRFCKAQTIQRRLNEIEAALRELEAEGVKLELALRRQSSSPEQQKKLWVGQLLQLVDKKNSLVAEEAELMITVQELNLEEKQWQLDQELRGYMNREENLKTAADRQAEDQVLRKLVDLVNQRDALIRFQEERRLSELALGTGAQG", "notes": "Mical-1, human, bMERB domain, residues 918-1067 (isoform 1); Limits are stated for the crystallised construct; also called Mical-1_(918-1067); RBD of Mical-1"}, "B2": {"name": "Rab8a, full length, loaded with GppNHp (natural protein, human, UniProt P61006 1-207, looked up)", "chain": "MAKTYDYLFKLLLIGDSGVGKTCVLFRFSEDAFNSTFISTIGIDFKIRTIELDGKRIKLQIWDTAGQERFRTITTAYYRGAMGIMLVYDITNEKSFDNIRNWIRNIEEHASADVEKMILGNKCDVNDKRQVSKERGEKLALDYGIKFMETSAKANINVENAFFTLARDIKAKMDKKLEGNSPQGSNQGVKITPDQQKRSSFFRCVLL", "notes": "Rab8a, human; called Rab8 in the results and Rab8aFl in the crystallisation methods; also called Rab8aFl; source: expressed and purified as described previously (Bleimling et al., 2009), loaded with GppNHp, gel filtration"}, "B3": {"name": "Selenomethionine derivative of Mical-3 residues 1841-1990 (domain or fragment, human, UniProt Q7RTP6 1841-1990, looked up)", "chain": "KQEELKRLHRAQIIQRQLQQVEERQRRLEERGVAVEKALRGEAGMGKKDDPKLMQEWFKLVQEKNAMVRYESELMIFARELELEDRQSRLQQELRERMAVEDHLKTEEELSEEKQILNEMLEVVEQRDSLVALLEEQRLREREEDKDLEA", "modifications": "selenomethionine in place of methionine", "notes": "Mical-3, human, whole predicted bMERB domain, residues 1841-1990 (isoform 1); printed elsewhere as 1841-1992; Two copies in the asymmetric unit of the crystal; also called SeMet Mical-3; seleno-L-methionine labelled Mical-3_(1841–1990)"}}, "key": {"Rab10 residues 1-175": {"target": "T1, Rab10 residues 1-175 (human, UniProt P61026 1-175)", "T1 construct": "Rab10, human, residues 1-175; Used for the crystal of the 2:1 complex with Mical-1 918-1067; also called Rab10_(1-175); source: expressed and purified as described previously (Bleimling et al., 2009)", "T1 sequence (looked up)": "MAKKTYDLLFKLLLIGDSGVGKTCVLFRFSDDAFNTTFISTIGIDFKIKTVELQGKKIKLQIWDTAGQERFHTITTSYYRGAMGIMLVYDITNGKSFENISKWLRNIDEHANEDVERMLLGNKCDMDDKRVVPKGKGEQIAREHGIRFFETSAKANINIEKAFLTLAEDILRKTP", "test": "crystal structure; X-ray; sitting/hanging-drop vapour diffusion, 20°C; data from beamline X10SA, SLS", "conditions": "both partners purified"}, "[1]": {"target": "T2, Rab10, full length, loaded with GppNHp (human, UniProt P61026 1-200)", "T2 construct": "Rab10, human; Rab10Fl in the crystallisation methods; also called Rab10Fl; source: expressed and purified as described previously (Bleimling et al., 2009), loaded with GppNHp, gel filtration", "T2 sequence (looked up)": "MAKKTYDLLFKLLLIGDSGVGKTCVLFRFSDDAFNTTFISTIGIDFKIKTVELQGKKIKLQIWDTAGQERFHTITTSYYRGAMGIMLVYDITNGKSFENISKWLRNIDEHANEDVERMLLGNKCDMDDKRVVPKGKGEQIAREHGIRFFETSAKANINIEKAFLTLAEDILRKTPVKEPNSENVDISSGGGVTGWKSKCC", "test": "SEC; analytical size exclusion chromatography, Superdex S75 10/300 GL; 130 µM Rab:GppNHp + 112.5 µM (113 µM) bMERB domain; 20 mM Hepes pH 7.5, 50 mM NaCl, 2 mM DTE, 2 mM MgCl2", "conditions": "both partners purified"}, "[2]": {"target": "B2", "test": "SEC; analytical size exclusion chromatography, Superdex S75 10/300 GL; 130 µM Rab:GppNHp + 112.5 µM (113 µM) bMERB domain; 20 mM Hepes pH 7.5, 50 mM NaCl, 2 mM DTE, 2 mM MgCl2", "conditions": "both partners purified"}, "[3]": {"target": "B1", "test": "ITC; iTC200, 25°C; 400 µM Rab titrated into 20–40 µM bMERB domain in the cell; 20 mM Hepes pH 7.5, 50 mM NaCl, 2 mM MgCl2, 1 mM TCEP", "conditions": "both partners purified"}, "[4]": {"target": "T3, bMERB domain (Rab binding domain) of EHBP1 (human, UniProt Q8NDI1 1047-1231)", "T3 construct": "EHBP1 1047-1231 (bMERB domain with CaaX box) is named for the prenylation and localisation experiments only; also called RBD of EHBP1", "test": "ITC; iTC200, 25°C; 400 µM Rab titrated into 20–40 µM bMERB domain in the cell; 20 mM Hepes pH 7.5, 50 mM NaCl, 2 mM MgCl2, 1 mM TCEP", "conditions": "both partners purified"}, "[5]": {"target": "T4, bMERB domain (Rab binding domain) of Mical-3, residues 1841-1990 (human, UniProt Q7RTP6 1841-1990)", "T4 construct": "Mical-3, human, whole predicted bMERB domain, residues 1841-1990 (isoform 1); printed elsewhere as 1841-1992; Limits are stated for the crystallised selenomethionine construct; also called Mical-3_(1841-1990); RBD of Mical-3", "T4 sequence (looked up)": "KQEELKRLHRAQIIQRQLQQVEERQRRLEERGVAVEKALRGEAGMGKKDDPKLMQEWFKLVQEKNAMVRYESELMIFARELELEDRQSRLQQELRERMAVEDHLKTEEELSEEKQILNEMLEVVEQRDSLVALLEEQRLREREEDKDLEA", "test": "ITC; iTC200, 25°C; 400 µM Rab titrated into 20–40 µM bMERB domain in the cell; 20 mM Hepes pH 7.5, 50 mM NaCl, 2 mM MgCl2, 1 mM TCEP", "conditions": "both partners purified"}, "[6]": {"target": "T5, bMERB domain (Rab binding domain) of Mical-cL, residues 534-683 (human, UniProt O94851 1796-1945)", "T5 construct": "Mical C-terminal like protein (Mical-cL), human, bMERB domain, residues 534-683; Limits are stated for the crystallised construct; also called Mical-cL_(534-683); RBD of Mical-cL", "T5 sequence (looked up)": "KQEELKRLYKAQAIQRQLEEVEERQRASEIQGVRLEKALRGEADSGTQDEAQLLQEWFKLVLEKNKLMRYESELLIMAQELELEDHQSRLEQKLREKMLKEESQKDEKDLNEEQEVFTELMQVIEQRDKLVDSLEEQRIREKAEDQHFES", "test": "ITC; iTC200, 25°C; 400 µM Rab titrated into 20–40 µM bMERB domain in the cell; 20 mM Hepes pH 7.5, 50 mM NaCl, 2 mM MgCl2, 1 mM TCEP", "conditions": "both partners purified"}, "[7]": {"target": "T6, bMERB domain (Rab binding domain) of EHBP1L1 (human, UniProt Q8N3D4 1340-1523)", "T6 construct": "EHBP1L1, human, bMERB domain; EHBP1L1 1340-1523 (bMERB domain with CaaX box) is named for the prenylation and localisation experiments only; also called RBD of EHBP1L1", "T6 sequence (Q8N3D4 1340-1523)": "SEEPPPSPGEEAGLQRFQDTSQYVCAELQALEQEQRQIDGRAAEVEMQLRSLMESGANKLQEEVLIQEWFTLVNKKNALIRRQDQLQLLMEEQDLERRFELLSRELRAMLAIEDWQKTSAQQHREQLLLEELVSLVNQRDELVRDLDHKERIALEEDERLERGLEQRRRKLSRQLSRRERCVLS", "test": "ITC; iTC200, 25°C; 400 µM Rab titrated into 20–40 µM bMERB domain in the cell; 20 mM Hepes pH 7.5, 50 mM NaCl, 2 mM MgCl2, 1 mM TCEP", "conditions": "both partners purified"}, "[8]": {"target": "B1", "test": "ITC; iTC200, 25°C; 400 µM Rab titrated into 20–40 µM bMERB domain in the cell; 20 mM Hepes pH 7.5, 50 mM NaCl, 2 mM MgCl2, 1 mM TCEP", "conditions": "both partners purified", "remark": "listed apart in the source"}, "[9]": {"target": "T4, bMERB domain (Rab binding domain) of …", "test": "ITC; iTC200, 25°C; 400 µM Rab titrated into 20–40 µM bMERB domain in the cell; 20 mM Hepes pH 7.5, 50 mM NaCl, 2 mM MgCl2, 1 mM TCEP", "conditions": "both partners purified", "remark": "listed apart in the source"}, "[10]": {"target": "T6, bMERB domain (Rab binding domain) of …", "test": "ITC; iTC200, 25°C; 400 µM Rab titrated into 20–40 µM bMERB domain in the cell; 20 mM Hepes pH 7.5, 50 mM NaCl, 2 mM MgCl2, 1 mM TCEP", "conditions": "both partners purified", "remark": "listed apart in the source"}, "[11]": {"target": "T4, bMERB domain (Rab binding domain) of …", "test": "SEC; analytical size exclusion chromatography with varying ratios of Rab8 and bMERB domain (1.2:1, 1.6:1, 2.2:1; effector 113 µM, Rab 130, 180 or 250 µM); stoichiometry from the peak of free excess Rab8", "conditions": "both partners purified"}, "[12]": {"target": "the molecule itself", "test": "crystal structure; X-ray; sitting/hanging-drop vapour diffusion, 20°C; data from beamline X10SA, SLS"}}, "data": [{"binder": "B1", "values": [{"measurement": "binding result", "setting": "Rab10 residues 1-175", "result": "binds"}, {"measurement": "binding result", "setting": "[1]", "result": "binds"}, {"measurement": "binding result", "setting": "[2]", "result": "binds"}]}, {"binder": "B2", "values": [{"measurement": "stoichiometry N", "setting": "[3]", "result": 2}, {"measurement": "stoichiometry N", "setting": "[4]", "result": 1}, {"measurement": "stoichiometry N", "setting": "[5]", "result": 2}, {"measurement": "stoichiometry N", "setting": "[6]", "result": 1}, {"measurement": "stoichiometry N", "setting": "[7]", "result": 2}, {"measurement": "KD,1 (two-site fit)", "setting": "[8]", "result": 55.5, "unit": "nM"}, {"measurement": "KD,1 (two-site fit)", "setting": "[9]", "result": 27.9, "unit": "nM"}, {"measurement": "KD,1 (two-site fit)", "setting": "[10]", "result": 159, "unit": "nM"}, {"measurement": "stoichiometry N", "setting": "[11]", "result": 1}]}, {"binder": "B3", "values": [{"measurement": "binding result", "setting": "[12]", "result": "binds"}]}]}
